Data taken from the DeepSol protein solubility set.

Assay: soluble on expression in E. coli; label from the status in PepcDB or PDB records

Sequence	soluble on expression in E. coli
MSLSELINNREKRVQTLKEIILHLHRGEAPAAVRGRLAALIADVDASEVAAMEQELMAEGMSHQEVQSLCDLHADVLQDVMTRPATPMPLAPGHPVHQLRAENRALGAAAQTARQRVRELAALADEGRFDAERVEALRAFEVLWEVDRHYQRKEHLVFSVLERHGTTGPSKVMWGKDDEVRDLLKASLAALGEEGVSGAELKVVAETVLEPALSALEGMIYKEENILLPMTLGLFTAEDWGEIFRQSPEYGWCLVQPGTGYRPPEPRPVTDAVKLPPAQAVQFPSGTLSFEQLLGLFQALPVDLTFVDRDDRVAFFSEGPDRVFARSRAVIGREVKHCHPPKSVHVVERIVEDFKAGRQSVAEFWIDLHGRFVHIRYFAVRDAAGAYLGTLEVTQDLTRLRALEGERRLLAYDAGPAHDPITREGHHHHHH	soluble
AIAAKDILGEAGLHFDELNKLRVLDPEVTQQTIELKEECKDFVDKIGQFQKIVGGLIELVDQLAKEAENEKMKAIGARNLLKSIAKQREAQQQQLQALIAEKKMQLERYRVEYEALCKVEAEQNEFIDQFIFQK	soluble
MGSDKIHHHHHHMKTIQPIDWLQPKTEAEEIRFRSTGFRWGNKGTHTSRTIMLDELRALLNYSRPDATRDDYVSVIIEDNCLGKRTASTRKLSLQRLSELYALDPKVLLFQLMRYFWYADRSGQAILPLLLALARDPLLRATAASVLCMHPGEEFARQPMTDALNQAAGGRFNEGTLNKIVRNAASSWTQTGHLKGRSHKVRQSIAPTAITTAYALLLGYLTGTRGAKLFETPWAQALDTPPSTLMHLAMDARRLGFLDMSQSGGIVELGFSRLLPLDERR	not soluble
MLQNRLNKARSHAEKHDVDAIVFFNMSNVRYLSGFTGSDGAVVLGRDASWFLTDSRYTTQASRQVVGLPTVEYRIKLDGITELVREQGFRRIGFESEHTAFAVYESLRQKLPKTELVPIGEELAQLRLIKDPSECELLSRVARLASEALLSILPLVKPGAVERELALELEFAMRRAGAENASFDFIVASGERGSLPHGRASDKALAAGELVTIDFGARYEGYCSDETVTVAVGVPDERQCQIYGIVKEAHDRAIAAVRPGAELREIDRIARGYIEEQGYGAFFGHGLGHGVGLDVHEKPVVSPRGEGVAAVGMVFTIEPGIYIPGWGGVRIEDTVIVTEDGCRPITMIPKELMIL	not soluble
MEMEHINENTIRVLIGNEDLADRGITFLDLLGNHKDVENFFYSILEEVDVEDEFQGSEAVTFQVLPKNDGLELFISKNVAMDDLSSLEGLSEVNADVSELIRKQIEADKAAADELDEMEATDETNRNVIFELDNFEAMIQLSKEVFMQSVLTNLYTYNDRYYLQVLFLTDELEKTNVDNEIAQILEFAHKTTVTQDTLVEYGTCIMERSALELTRYYFND	not soluble
MGSDKIHHHHHHMSIELIDLHPAPADLKQLVQSGFKCQPRQLPAWVLYDAKGSRLFAQICEQPEYGLTRTEIKLLEENAPAIAKAVGDGVIVEFGIGNARKVSPLLNAIRPSTFVALDISQAALKDSLTRLASTYPMVSILGICCDHSSMQALPPHPRLEGVRCIGFFPGSSLGNFTPKEAVAVLRRFRKLLGGGPLLLGLDQPRDPIQLEAAYNDEAGISAAFARNLLHRLNRELEADFRPDQFSYRARWQEEFHRIEMALVSRCSQTIVIDNSTWSFSAGEPLITEYSVKYNPQEAARLAEKAGWRINQRWHDSADSLSLHLLEPSD	not soluble
MDIGRAVRFLRKRQGWTQQQLADFSHTSKSNISNLENGNQGYSPAILEYLAKAFNCSVSQIFLLAENMDNEGNLLKDWQHMPIDVLFIQLPQEVQCQLKHLIFTLIDTKK	not soluble
GSTPITGPHIAYTEAVSDTQIMLKWTYIPSSNNNTPIQGFYIYYRPTDSDNDSDYKRDVVEGSKQWHMIGHLQPETSYDIKMQCFNEGGESEFSNVMICETK	soluble
MSLDLFSWAAAQQAAQSAPLAARMRPQTLDEFVGQEHLVGPGRFLRRALEAGHLPSCILFGPPGTGKTTLARLMASNVNAHFEQLNAVTSGVQDIRRIVDEARARLAERGQKTVVFIDEIHRWRKDQQDALLPHVEDGLITLVGATTQNPLVSVNAPLVSRTRIFELKPLSDEHIAHLLDRALRTPGRGLGNYNATVTPEAMEHLVRMAGGDARAALNALELAVLLTQPDEQGRRTVTLETAEEALLKRAVVYDHDGDEHYHVASALIKSIRGSDPDAALYWLARMLYAGEDPRFIARRLVISAAEDIGLADPQALVIAQAAADAVSFIGMPEGRIPLAEAVVYLACAPKSNSAYLAIDRALAVVEREKTPPVPNHLKDTGYGSDQRLGYGKGYQYPHDFPGAWVEQRYLPEGVDGPFWEPKGYGREAELARLLRERRGREGHHHHHH	not soluble
MSLLSVKQSSINEDHNNWDFFGHFVLRSTGFPYEWMKELKMQQTFDLIFQNAKWEQVESKFNQELAIKREQLKAYFDSEDFRQAVFISNPDMYQHIDRYMKHFQSHSRPSKVKRIEKKLFTYLQRFCGKNESASFFGPLNYGQVEPNIDEYWDGSFIETKDLQKREAFLSYWAVKALAKAVAKENELAPYVPLQIPSWIVVRKEYVVLSSGKRINLPAWMMEIMHYIQETSSCLWELQNHFNHIEAGQLKASLEKLISKGLIHREWIIPSTVVHPLHRLLEQLRELPDSPAKNKWCQALDELASEVTKLANLPIVEKRRSFAHLEETFTKLTGEPSRRGKASLYADRFIYYEDAQGHIQEFRFGKPFIEDLQTKLAGSLNMSAAYGEEIWAYYQELGRNVYEDMQVEARNDEKRQLANSGIPFSSFINKLRQTYPDVPQLPKSSFSNKIEAIIREKGTEQRVVKLTSDQLNVFPSNRSFYSLPDLFLQAENIEALRNGDVQIILAKLHHHLLMHNWMTYFYQEKERLERDLVQLVQKLDHEDGTVLSGLEIMRRNKAYYDYPTTVIEYAEKPDSSKESIKLTDLIVVRNDDGHLELQEKNTSRPIELYVPLADQVHYLPFAMFSKPMLLHVPISSGKHTPRIVIDDVVYQRERWFFYTKQLVDLFHQLQGPLLLKKVEEWRQAEGIPEVVYIKGSDVRKPYWVDFKNYFSLELMQQILLENNEITIEEMLPDPHHLWLKSRKGSHSCELRMSVYKLGIKEVSEHAEGHHHHHH	soluble
MNFDVVIIGGGLAGLTCGIALQKQGKQCAIINNGQAAIDFSSGSMDLLSCLPSGQKVHVFCEAFSELSQQAPEHPYCLLGQHQVVAKVQQFEQFMQELGLVGSHKQNHLRVTPLGGLRHTWLSPKSVPVIAENEHFPYRQIAILGIEGYHDFQPQILVDNLKQNAAFSHCDFSIGYLNIPELDYLRQNAREFRSVNIAQLLEHKLAFEDLVQEIKQAAGNAQAVFLLACFGLDDQRFFDSLKQATALALFELPTLPPSLIGIRQYRTLRDQFEKLGGLLLNGDRAVRAEFDGDRVARIFTTLHQEESINAAHFVLASGSFFSNGLVAEFERVKEPIFDLDIIGNKAFINSERVSWTDKRFAAAQPYQSAGVAINHHCQVYKNGHLIPNLYAIGNVIGGFWGIEQGCASGVSVVTALTVAEWVGGTKLEHHHHHH	not soluble
MYETQVQELSPEEAKRLYDQGVPFFDVREVEEYAQARIPGARLLPLSEFMARYGEIPKDTPVVLYCRTGNRSWQAAAWLSAQGYRVYNLEGGIVRWYRAGLPVDTTPMEAAYRATPYQEVGPEEAKALLEEAFVVDVREAWEYGEGHVPGAVNIPLSTLPQRLAELPKDRPILLVCNSGNRSGVAAEFLVAQGFDGERVYNLEGGTYAWASRGLPLER	soluble
MIVDSISSSTASTSSSSPTRGTPIRKSLQCAVCGDVALGKHYGVNACNGCKGFFRRSIWKNRTYACRHGGKCLVAKEQRNACRSCRLTRCLDVGMNPRAVQGDTVEDPEWDEEAMPETLSISTQTDALKVKKKSHTSLFTLDIKKEQIIDNLRAIYARTDPEEFWKLTYPGTYDFRYAFHNTKVVSPRTPLTPTAERIATLNDVVADFRRAFVLFVDILKSIDQLRDVQEDDKMKIAKSRFAAFYWWLCSTWSAKAGCNGVCYSNGSYHPASISDMPKSEGKHGVRIDYSGVSQKSLENLVEPLRRMELSDEERIVGAVMVILADPVPNVSTKTEKILAEARDFYLELLGYCIKLPEEQQGIRVSTMVLLLASIMELVHLTTDNIQLSDVLHVIDLGDWSQELRDHRYRRQF	not soluble
MKGKITLFFTALCFGLTGCIAPPKGLEKERFSINSYREISPQDLTCHCKTVRLGGKIVNTTVLANQTKIEVLSLPVSSISAKPFVELQSDGRFIVYFNGFVEPENLKERYITVGGQLAGTEKGKIEQADYTYPVVQADKYRIWTLSTTYDYPTDDWDEDDDWGFFRWRHRLWYVQPEIHYYLN	not soluble
MGSDKIHHHHHHMTQMEMARKGVVSDEMKKVAEYEGVDVEIVRQKLAEGRAVLPKNKLHRIERPMIVGEGFSVKVNANIGTSQGFSSLEEEKEKARVAIEYGADSLMVLSTWGDLREIRRAIVEMSPVPVGSVPIYDSAVRSYQMKKNVVDFSEKDFFDMVIAHAEDGIDFMTIHVGVTRRVLDRIKSSRRVLKIVSRGGAIIAGWMIKNNKENPFYEHFDELLDIAKDYDITLSLGDGMRPGAVVDASDAQQFEELFVMGELVERAREKGVQVMLEGPGHVPLNEVEMNVRLMKKIGKGAPIFLLGPLPTDRAMGYDHIACAIGGALAGYYGADFLCYVTPSEHISLPDVEDVREGVIASKIAAIVADVARGNKKAWELEKKMALARKNFDWETMFSLSLGKDVAKKKYEERPYPDKGCSMCGPFCAIKIAEEFS	not soluble
MIKVEIKPSQAQFTTRSGVSRQGKPYSLNEQLCYIDLGNEYPVLVKVTLDEGQPAYAPGLYTVHLSSFKVGQFGSLMIDRLRLVPAK	soluble
MAEVKKSNAPEFKGAETLYLIDIPQPDGKTTKTVRFFNQTSGSRSIEAGEIELKTKDKSGSDYGDVTQSASIEGICTEGDEGLDYVEEAILNKVLVRIHEVNLRSATASEFKVKSGTYMLNSLELSHENEEYSKYSIGLKLNGKISKGTLNKVPEGAPSGDVATPGTE	not soluble
MGSSHHHHHHSSGLVPRGSHMRPHGDTAKKPIIGILMQKCRNKVMKNYGRYYIAASYVKYLESAGARVVPVRLDLTEKDYEILFKSINGILFPGGSVDLRRSDYAKVAKIFYNLSIQSFDDGDYFPVWGTCLGFEELSLLISGECLLTATDTVDVAMPLNFTGGQLHSRMFQNFPTELLLSLAVEPLTANFHKWSLSVKNFTMNEKLKKFFNVLTTNTDGKIEFISTMEGYKYPVYGVQWHPEKAPYEWKNLDGISHAPNAVKTAFYLAEFFVNEARKNNHHFKSESEEEKALIYQFSPIYTGNISSFQQCYIFD	soluble
MTNQQDYTQDNDKLYRYLFQHRAVRGEWVRLNKTFTDTLNTHQYPKAVQDLLGEMMVATNLLTATLKFAGNITVQIQGDGPLRLALVNGNDQQQIRALARVDGNITENMSLHNMIGKGVLVITIAPKEGERYQGVISLDKPTITECLEDYFVRSEQLQTQLIIRTGEYEGKPVAAGMLLQIMPDGSGTPEDFEHLTTLAATVKDEELFGLPAEELLYRLYHEETVNLYPAQDVQFFCGCSAERSSSALLLISDEEIDEILAEHKGRIDMQCECCGTHYFFNKEAIEKLKSTRV	not soluble
MSLKENKYDDKHFFEQYSQMPRSKEGLKAAGEWHELKKMLPDFNQKTVLDLGCGFGWHCIYAAEHGAKKVLGIDLSERMLTEAKRKTTSPVVCYEQKAIEDIAIEPDAYNVVLSSLALHYIASFDDICKKVYINLKSSGSFIFSVEHPVFTADGRQDWYTDETGNKLHWPVDRYFNESMRTSHFLGEDVQKYHRTVTTYIQTLLKNGFQINSVIEPEPAPELKDLPEMQDEYRRPMMLLISATKQEGHHHHHH	soluble
